Measurements published in the DeepSol protein solubility set.

assay: soluble on expression in E. coli; label from the status in PepcDB or PDB records

Row | Sequence | soluble on expression in E. coli
1 | WTGEDSAEPNSDSAEWIRDMYAKVTEIWQEVMQRRDDDGTLHAACQVQPSATLDAAQPRVTGVVLFRQLAPRAKLDAFFALEGFPTEPNSSSRAIHVHQFGDLSQGCESTGPHYNPLAVPHPQHPGDFGNFAVRDGSLWRYRAGLAASLAGPHSIVGRAVVVHAGEDDLGRGGNQASVENGNAGRRLACCVVGVCGPGLWERQAREHSERKKRRRESECKAA | soluble
2 | YEVKVKLADIQADPNSPLYSAKSFDELGLAPELLKGIYAMKFQKPSKIQERALPLLLHNPPRNMIAQSQSGTGKTAAFSLTMLTRVNPEDASPQAICLAPSRELARQTLEVVQEMGKFTKITSQLIVPDSFEKNKQINAQVIVGTPGTVLDLMRRKLMQLQKIKIFVLDEADNMLDQQGLGDQCIRVKRFLPKDTQLVLFSATFADAVRQYAKKIVPNANTLELQT | soluble
3 | YFKEKKIHPEAEMFDNRGFGVVAMMGLPLAGKDTYIKENFKNINVISLDDIREELNISSKRNSGKVAAIAISRAKQLLRRKESFIWNATNLRRENRQKLIRLCTAYGAKLKFIYLEVPYRELLSRNKMRSRYVPVEVINKMIRKMDMLEGEEIC | not soluble
4 | YKEFKLKRVYYSGYIPINHEDHALPAVGSAPPLLRENRLYQSDWLMRFYGFAADEIVNPQHPNLDLDVDPKLGWALRHPEQFPVDINRADYRMILRVPGIGVRSAKKIMHARRFGALRIDQLKRMGVAYSRAQHFIYCID | not soluble
5 | YLSKYRNETGRSPSFLVNIDSSLKSLAHVDVIYPVGDPIFIHIYERGKERRYKPIEPLLKDDEFEFMDAILDIIMSRASDYPPAENEEEQEKNIEDVYKKTVS | soluble
6 | YSFIGNPVFKKPFELDEMREYYLNFFERRGHGRIERYPVVARWRTDIYLTIASIADFQPFVTSGVAPPPANPLTISQPCIRLDDLDSVGRTGRHLTLFEMMAHHAFNYPGKEIYWKNETVAYCTELLNELGVKKEDIVYKEEPWAGGGNAGPCLEAIVGGLEVATLVFMNLEEHPEGDIEIKGARYRKMDNYIVDTGYGLERFVWASKGTPTVYDAIFPEVVDTIIDNSNVSFNREDERVRRI | not soluble
